# In patent publication US20240148892A1:
# Legend:
# [1] = target: human full-length B7H3 expressed on MCF-7 cells (human) (UniProt Q5ZPR3); assay: cell-based or functional assay
# [2] = target: human full-length B7H3 expressed on MCF-7 cells (human) (UniProt Q5ZPR3); assay: flow cytometry (FACS) on MCF-7 cells expressing human full-length B7H3; negative control
# [3] = target: cynomolgus monkey B7H3 on transfected FlpinCHO cells (cynomolgus monkey); assay: flow cytometry (FACS) on FlpinCHO cells transfected with cynomolgus monkey B7H3; negative control
# Sequence of human full-length B7H3 expressed on MCF-7 cells (human) (Q5ZPR3 29-534 limits assumed): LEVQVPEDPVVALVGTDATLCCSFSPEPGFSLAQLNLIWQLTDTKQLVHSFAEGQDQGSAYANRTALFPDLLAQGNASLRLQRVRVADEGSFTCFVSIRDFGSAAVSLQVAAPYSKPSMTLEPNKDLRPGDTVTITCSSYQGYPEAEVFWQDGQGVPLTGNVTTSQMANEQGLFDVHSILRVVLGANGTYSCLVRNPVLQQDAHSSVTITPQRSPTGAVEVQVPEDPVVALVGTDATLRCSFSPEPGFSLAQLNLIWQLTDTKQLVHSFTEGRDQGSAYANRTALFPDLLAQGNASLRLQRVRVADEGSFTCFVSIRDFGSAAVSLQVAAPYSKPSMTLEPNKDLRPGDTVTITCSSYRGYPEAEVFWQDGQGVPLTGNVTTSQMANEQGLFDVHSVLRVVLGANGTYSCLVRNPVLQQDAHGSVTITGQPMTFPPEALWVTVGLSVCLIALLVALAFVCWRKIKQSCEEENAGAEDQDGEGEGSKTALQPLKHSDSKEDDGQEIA
substance,measurement,setting,value
hIgG1 isotype (antibody),"Antibody internalization Maximum MFI, MCF-7 cells, high-content imaging (negative control)",[1],21 MFI
same,Maximum MFI,[2],47.8 MFI
same,Maximum MFI,[3],6.67 MFI
